Laboratory results reported in publication PMC10232262.

Target: TRPA1 tagged with V5 and 6x histidine in the C terminus (UniProt Q8BLA8)
Experiment: pull-down; nickel bead (Ni-NTA) pull-down of TRPA1-V5-His from HEK293 cells; IQGAP1 detected with anti-IQGAP1; cells untreated or treated with AITC (400 uM), AITC with HC-030031 (10 uM), AITC in Ca2+-free solution, or forskolin

UniProt Q8BLA8, sequence (Q8BLA8 whole entry): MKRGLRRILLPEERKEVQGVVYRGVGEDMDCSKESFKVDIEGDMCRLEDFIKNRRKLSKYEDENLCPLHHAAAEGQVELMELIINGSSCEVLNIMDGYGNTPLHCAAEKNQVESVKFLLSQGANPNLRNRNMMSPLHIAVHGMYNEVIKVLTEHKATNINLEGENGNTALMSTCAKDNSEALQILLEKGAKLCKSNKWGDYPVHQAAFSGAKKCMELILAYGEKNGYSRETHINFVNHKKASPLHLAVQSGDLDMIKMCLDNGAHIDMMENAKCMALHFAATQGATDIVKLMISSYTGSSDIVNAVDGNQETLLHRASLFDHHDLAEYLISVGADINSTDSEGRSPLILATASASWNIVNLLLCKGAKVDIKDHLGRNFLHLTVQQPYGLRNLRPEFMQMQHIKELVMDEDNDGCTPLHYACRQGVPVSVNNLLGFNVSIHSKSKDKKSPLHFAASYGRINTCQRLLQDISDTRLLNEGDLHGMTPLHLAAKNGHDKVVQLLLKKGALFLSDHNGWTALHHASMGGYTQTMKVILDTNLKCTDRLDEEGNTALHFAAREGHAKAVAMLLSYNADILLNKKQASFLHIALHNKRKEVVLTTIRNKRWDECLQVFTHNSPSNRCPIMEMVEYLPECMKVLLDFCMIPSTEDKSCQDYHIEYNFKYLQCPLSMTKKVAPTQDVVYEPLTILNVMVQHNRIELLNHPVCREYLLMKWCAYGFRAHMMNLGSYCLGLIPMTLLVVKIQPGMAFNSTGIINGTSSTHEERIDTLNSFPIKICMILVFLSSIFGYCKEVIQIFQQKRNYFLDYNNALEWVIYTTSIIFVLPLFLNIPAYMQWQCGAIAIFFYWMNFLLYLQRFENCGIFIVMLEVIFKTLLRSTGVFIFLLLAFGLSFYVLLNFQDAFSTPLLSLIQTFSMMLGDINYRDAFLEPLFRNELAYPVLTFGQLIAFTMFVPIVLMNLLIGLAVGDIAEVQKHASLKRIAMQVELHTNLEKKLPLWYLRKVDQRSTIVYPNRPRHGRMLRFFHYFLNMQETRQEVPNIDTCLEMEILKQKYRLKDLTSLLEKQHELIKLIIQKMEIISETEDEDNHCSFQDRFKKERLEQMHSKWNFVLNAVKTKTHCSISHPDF

relative band density (basal, against wild-type IQGAP1 basal = 1.0) (relative to the first band)	Substance
0.53	Cdc42 binding region (M1054-K1077) deleted IQGAP1 (from UniProt P46940 1-1657) (natural protein)
1.61	IQ motif (L700-Q905) deleted IQGAP1 (from UniProt P46940 1-1657) (natural protein)
